Measured values reported in the RNAGym collection of RNA variant scans (doi:10.1073/pnas.2313332121).

B1: TPR t1 (parent)
chain: GACCAAUCUGCCCUCAGAGCUCGAGAACAUCUUCGGAUGCAGAGGAGGCAGGCUUCGGUGGCGCGAUAGCGCCAACGUCCUCAACCUCCAAUGCAUCCCACCACAUGAUGAUGCCUGAAGAGCCUUGGUUUUUUG

Variants of: B1
Test: polymerase ribozyme fitness, log enrichment relative to wild type (log ratio); higher = more active; in vitro selection for triplet polymerase activity
How it was run: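 Frozen incubation at −7 °C formed the core of a single, triplicate in vitro selection round applied to PCR-built, transcribed mutant libraries of each subunit of a heterodimeric triplet polymerase ribozyme. Extended constructs were gel-excised, captured with streptavidin beads and amplified by RT-PCR, and input and output libraries were Illumina-sequenced with a filter of ≥10 input reads and ≥1 read per output. Fitness is the logarithm of genotype enrichment relative to wild-type enrichment, with inverse-variance-weighted replicate averaging, and the logarithm is base 2.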

Variant | polymerase ribozyme fitness (log ratio)
U59G C97U | -1.6
C13U C56U A90G | 0.402
C15G C79U | -1.96
C49G G58C | -3.36
C4A G42U G69U | -1.62
G42U G48U | -3.89
A16U C56A G69U G117U | -2.35
G60U A105C | -1.6
A74G G113A | -1.8
A37C C53U C123U | 0.761
C89U C101A | -1.39
U9A A18U U92C | -2.53
G42A C49G | -1.71
G48C U59C A83C C114A | -2.11
G93A C101U | -1.15
U38C G71A | -1.37
A43C C94G | -4.54
C40A A41U A43U G44C | -3.15
C72A C97U | 0.226
C4A C11G G60A C114G | -5.08
A29U G71A G135C | -2.1
C86G C88U A105G | -4.95
G19C C101A G120U C124A G135C | -3.1
C53U C104A | -1.8

Variant | polymerase ribozyme fitness (log ratio)
C56U C70U C82G C124A U130C | 0.377
G113U G122A | -2.45
G69U U81A | 0.151
C70U C85U | -0.917
U59C C64U U81A | -1.8
A29G G52U | -1.55
G39A U112A | 0.854
G10C G113C | -2.27
C15A G57A U78A G110U C124G | -3.91
G48A G120C | 0.921
U7C U9G A26G | -1.4
A103G U112G | -4.71
C4U G69A | -2.91
C56G C123A | 0.0294
A46C U96G C104U U131C | -1.75
C70U C80U | -0.851
C12G U21A G71U U78A A121U | -0.676
A18C U32C | -2.05
A46U G48A G52A C62A C88U C124U | -7.18
G60A C114A | -1.45
C8U U32A U96A A121C U130C | -3.85
C56U G57C C70A U92A | -6.45
A41C A74U U87C | -0.35
G63U C124U | 0.0528

Variant | polymerase ribozyme fitness (log ratio)
G52U G63U | -0.651
C49A A83C A84U | -0.775
C8A A16U G120U U130G | 1.06
C11G C53U C80U C88A U112C | 0.738
G71A G110U | -2.36
C4A G61A | -1.34
C11G A84U | -0.202
C56U C80A | -1.98
U9G G48A G93C | -1.01
C98A A100G C114A | -6.06
C53U C94A U129C | -1.99
U96C A118U | 1.27
C15A A41C C104U | -2.15
C12A U33A G48U A74C C94U | -5.8
G93A G110U | -2.04
A2G G93C | -1.48
C8U G48C G69U | 0.0683
A83C C97A | -3.66
A27C C62A | -2.54
C12U C49A U96C | -0.405
G10A C88A A90G G122U U133G | 0.185
A43C U87C | -1.86
C15U G47U C49A C86A U106C | -2.3
U78C A84G C97G | -5.87

Variant | polymerase ribozyme fitness (log ratio)
C49U G57U C79U C101A G128U | -4.04
C11U C70A U129A | -3.59
C13U U30C C80A C89U C124G | -5.32
A43G U92C | -3
U54A C88G C89U C115A | -1.42
C40A C56U | -0.58
C4U G10C C20A G48U A119G | -3.45
U112A C115A | 1.16
C13U C28G C34G C49A C76A A100C U109A C123G | -6.13
G110C G128U | -4.78
G52U G60C | -0.445
C62A C114A | -2.71
G60C G61A U96A | -2.15
G45A C70U | -1.29
C53U C64U | -0.276
C73U C79G A84G U96C | -2.54
C20A G36C U126C | -4.66
A5U C70U | -0.781
A5C C49G C53A U54G C98U U106A G128U | -2.13
C12G C82U C97A | -3.58
G17U C62G A83U C123G | -5.79
U9G C53U G107C | -5.76
U14C G48U U54A | -2.87
A43U G63A A95G G122U | -4.37

Variant | polymerase ribozyme fitness (log ratio)
G71A G120U U126C | -1.26
C40A G44A G45U A50C G93A | -5.29
C31U C70U | -4.33
A29G A95G | -1.84
G48C G93A C99A G113C | -7.38
G69A A84U C94U | -3.36
C101A U126G G127C | -2.49
C12A C86U A111U | -3.42
A16G G52A U116C | 0.826
G19C G63C | -2.72
C8U G65A | -4.53
C101A G113A | -2.4
C12U C34A | -2.28
G57C C62G C104A | -5.81
G42C C94A | -2.23
U32G C62A C102A A111G | -6.35
A43C U55C C64U A84G G110U U125A | -6.14
C8G G45A G117A C123A U130G | 0.313
C34U G113C | -4.95
C15G A95U C98U | -5.14
U92C U106G G135C | -3.67
U9A C11A G42U G61U | -1.6
C8G U32C A66U | -0.651
C49A C124A | 1.63

Variant | polymerase ribozyme fitness (log ratio)
U81C G93A C123A | -0.322
U9C A103C C104A | -2.12
A43U G120A G127A U129C | -3.11
C12U G51A U78C | -2.26
C101G C124G | -0.536
C12A G51A | -2.41
A18U A46U C97U A103U G120U C123G | -6.88
C8A C115A U125G | 1.5
U54A C85U C97U | -1.5
A16U A37C G71U A111U | -5.61
C15A G39U C40U C64U G93C | -4.09
C22G C86G G110U A121U | -3.31
C40A G63U C104A G120A U130G | -5.07
U54C U106A C124U | 2.23
U9A G71U U87A C89A U112G | -5.05
C13U G71U A111G U126G | -0.972
A29G A105C | -7.42
U33G C70U G120U | -6.7
G93C U106A | -0.61
U7G G71U C97G G120U U132C | -3.27
G10U U21A G60U G71A C89U C101U C124A | -6.77
C8A C40U C53A | 0.276
U9G C80A U87C C114U | -4.36
U33A G58A | -5.07

Variant | polymerase ribozyme fitness (log ratio)
C3A G25U G58C U59G C97U C123A G135U | -6.86
C11A C40U G69U A83G G117U G127C U133G | -4.24
A95G C104A U109C C114U C124A | -2.73
A27G C64U C73U | -2.48
C101G C114A | -3.3
G51U C64A G69C | -3.5
G10C A27G C40U A121U | 0.906
C4U G71U | -0.506
C85G A118U U126G | -3.39
A50U U78G A90U | -3.54
C13U C34U C40U A50G U59C | -5.78
G39A G52A C72U C85U A95C G113U | -5.94
G10C A83U U106G | -3.53
U9C C49A C62U C123U | 1.78
G19C U55A C64U A66U C104U | -3.86
G17U G42U G45A G69C U81G C86A C94U C99A A121C | -6.32
G51A U112A | -1.47
G60C C79A C88G | -2.51
G35U C123U | -2.85
C49U C72G U78C | -1.33
C102A A121U U131C | 0.0525
C40U G52U C62U | -1.16
C53G G63C G93C C114A | -3.01
